This is an account of results in PMC8203317 (Journal of immunology (Baltimore, Md. : 1950), 2020).

Experiment [1] addresses Paxillin (UniProt P49023). The following applies: cited from earlier work.
For experiment [2], the target named is human Kindlin-3 F0 (1-105), GST tag removed (human, UniProt Q86UX7 1-105). The experiment is described as follows: NMR titration.
Sequence of human Kindlin-3 F0 (1-105), GST tag removed (Q86UX7 1-105): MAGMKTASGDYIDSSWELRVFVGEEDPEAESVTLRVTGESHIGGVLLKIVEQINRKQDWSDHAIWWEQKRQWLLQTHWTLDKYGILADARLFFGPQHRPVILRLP

The Kd is the equilibrium constant for the complex coming apart. Turning to Kindlin-2 (from UniProt Q96AC1), in experiment [1], the Kd is 201 µM.

B1: human LPXN LIM4 (324-386), 15N-labeled, GST tag removed (domain or fragment, UniProt O60711 324-386, looked up)
chain: RRGTLCHGCGQPITGRCISAMGYKFHPEHFVCAFCLTQLSKGIFREQNDKTYCQPCFNKLFPL
modifications: also: 15N-labeled
In experiment [2], B1 returned a Kd of 192 µM.

B2: human PXN (paxillin-γ) LIM4 (541-605), 15N-labeled, GST tag removed (domain or fragment, UniProt P49023-3 541-605, looked up)
chain: YHERRGSLCSGCQKPITGRCITAMAKKFHPEHFVCAFCLKQLNKGTFKEQNDKPYCQNCFLKLFC
modifications: also: 15N-labeled
B2 came in with a Kd in experiment [2] of 117 µM.
